# Experimental data from publication PMC12217528, “Structural basis of topoisomerase targeting by delafloxacin” (Nature Communications, 2025).
# Biological target: ParE30-ParC55 fusion protein (fused ParE-ParC cleavage core of S. pneumoniae topo IV) (Streptococcus pneumoniae)
# Assay: crystal structure; ParE30-ParC55 fusion protein (4.5 mg/ml) mixed with 18-mer V-site or E-site duplex DNA at 1:1.2 molar ratio, 2 mM delafloxacin, 10 mM MgCl2; sitting-drop vapour diffusion, 50 mM sodium cacodylate, 62.5 mM KCl, 7.5 mM MgCl2, 2.5% Tacsimate, 5.5–7% isopropanol, pH 6.5, 301 K; V18 with PEGylated graphene nucleant 2.0 Å, V18 and E18 without 2.4 Å
substance,measurement,value
ParE30-ParC55 fusion protein (fused ParE-ParC cleavage core of S. pneumoniae topo IV) (enzyme),stoichiometry N,2
